# Source: PMC3787022, “Small Angle X-Ray Scattering Studies of Mitochondrial Glutaminase C Reveal Extended Flexible Regions, and Link Oligomeric State with Enzyme Activity” (PLoS ONE, 2013)
# What was measured:
# [1] = molecular target: the molecule itself; experiment: SEC-MALS; protein concentration screen 1.4-9.7 uM, no K2HPO4; WTC-030S5 column, 20 mM Tris-HCl pH 8.5, 500 mM NaCl, 23°C
# [2] = molecular target: the molecule itself; experiment: SEC-MALS; phosphate screen, K2HPO4 0, 25, 50 and 100 mM; protein 5 uM in the peak (injected 70 uM); WTC-030S5 column, 20 mM Tris-HCl pH 8.5, 500 mM NaCl, 23°C
# D3Z7P3 = experiment: SAXS; phosphate (Pi) titration 0-100 mM, microfluidic mixing chip, 36 sec mixing time; GACwt constant at 30.7 uM, GACΔC constant at 33.8 uM; 20 mM Tris-HCl, 500 mM NaCl, 0.5 mM TCEP, 1 mM sodium azide; analysed with OLIGOMER; conditions: other: SAXS
protein,measurement,setting,value
"Glutaminase C wildtype construct (mouse GAC, residues 73-603) (enzyme, UniProt D3Z7P3-2 73-603, looked up, GAC isoform of 603 residues; also called GACwt; GAC wildtype; source: expressed from a pET28a vector, purified (Ni-column, anion-exchange, gel filtration); not shown: histidine tag, N-terminal, cleaved) SSSPSEILQELGKGGTPPQQQQQQQQQPGASPPAAPGPKDSPGETDAFGNSEGKEMVAAGDNKIKQGLLPSLEDLLFYTIAEGQEKIPVHKFITALKSTGLRTSDPRLKECMDMLRLTLQTTSDGVMLDKDLFKKCVQSNIVLLTQAFRRKFVIPDFMSFTSHIDELYESAKKQSGGKVADYIPQLAKFSPDLWGVSVCTVDGQRHSIGDTKVPFCLQSCVKPLKYAIAVNDLGTEYVHRYVGKEPSGLRFNKLFLNEDDKPHNPMVNAGAIVVTSLIKQGVNNAEKFDYVMQFLNKMAGNEYVGFSNATFQSERESGDRNFAIGYYLKEKKCFPEGTDMVGILDFYFQLCSIEVTCESASVMAATLANGGFCPITGERVLSPEAVRNTLSLMHSCGMYDFSGQFAFHVGLPAKSGVAGGILLVVPNVMGMMCWSPPLDKMGNSVKGIHFCHDLVSLCNFHNYDNLRHFAKKLDPRREGGDQRHSFGPLDYESLQQELALKDTVWKKVSPESSDDTSTTVVYRMESLGERS",stoichiometry N,[1],4
same,stoichiometry N,[2],~4
same,volume fraction of octamers at 80 mM Pi,D3Z7P3,a maximum of 38% at 80 mM Pi
